According to patent US20240358834A1 (University of Pennsylvania, published 2024):
Residue numbers refer to the chain shown, from its start.

B1: scFv 33 (scFv)
scFv: DIVMTQTPLSLSVSPGEPASISCKASQSLLHSDGNTYLHWYLQKPGQSPQLLIYSVSNRFTGVSDRFSGSGSGTDFTLRISRVEADDTGVYYCGQGTHLPFTFGQGTKLEIKGGSSRSSSSGGGGSGGGGEVQLVESGGDLVKPGGSLRLSCAASGFTFSHYDMNWVRQAPGKGLQWVASIAYDGSNTYYTDAVKGRFTISRDNAKNILFLLVNSLRAEDTAIYYCARGLVYWGQGTLVTVSSASTTAPSVTSGQAGQHHHHHHGAYPYDVPDYAS
notes: Canine scFv (VL-linker-VH); also called P3-07
B2: scFv 21 (scFv)
scFv: QPVLTQPPSVSVSLGQTATISCSGESLSKYYAQWFQQKAGQAPVLVIYKDTERPSGIPDRFSGSSSGNTHTLTISGARAEDEADYYCESAVSSDTAVFGSGTQLTVLGGGSSRSSSSGGGGSGGGGEVQLVESGGDMVKPGGSLRLSCVASGFTFSSFWMYWVRQAPGKGLQWVGGINSGGSITSYADAVKGRFTISRDNARNTLYLQMDSLRDEDTAVYYCAKPDIYGSFDHWGQGTLVTVSSESPSPPNLTSGQAGQHHHHHHGAYPYDVPDYAS
notes: Canine scFv (VL-linker-VH); also called P3-04; P3-34
B3: scFv 25 (scFv)
scFv: DIVMTQTPLSLSVSPGETASISCKASQSLLHSNGNTYLNWFRQKPGQSPQVLIYQVSNRDTGVPDRFSGSGSGTDFTLRISRVEADDAGVYYCGQGIQYPPTFGAGTKVELKGGSSRSSSSGGGGSGGGGEEQLVEFGGDLVKPGGSLRLSCVASGFTFSSLSMNWIRQAPGKGLQWVSQISPDGTITGYTDAVKGRFTISRDNAKNTLYLQMNSLRDEDTAIYYCAKSRYTDTYPFDYWGPGTLVTVSSESPSPPNLTSGQAGQHHHHHHGAYPYDVPDYAS
notes: Canine scFv (VL-linker-VH); also called P3-40
B4: scFv 32 (scFv)
scFv: QSVLTQPASVSVSLGQTATISCSGESLSKYYAQWFQQKAGQAPVLVIYKDTERPSGIPDRFSGSSSGNTHTLTITGIQAADEADYYCQSYDDNLDGYVFGSGTQLTVLGGGSSRSSSSGGGGSGGGGEVQLVESGGDLVKPGGSLRLSCVGSGFTFSSYWMSWVRQAPGKGLQWIADISDSGSSTDYADAVKGRFTISRDNAKNTLYLQMNSLRAEDTAMYYCARGLGMDYWGHGTSLFVSSASTTAPSVTSGQAGQHHHHHHGAYPYDVPDYAS
notes: Canine scFv (VL-linker-VH); also called P4-11
B5: scFv 27 (scFv)
scFv: B4 scFv with S2P, A8P, A80E, A83G, Y86H, Q88H, D92E
notes: Canine scFv (VL-linker-VH); also called P3-18
B6: scFv 30 (scFv)
scFv: B4 scFv with A32T, T75S, I77A, A80E, L94V
notes: Canine scFv (VL-linker-VH); also called P4-02
B7: scFv 6 (scFv)
scFv: QPVLTQPPSVSGSLGQRVTISCTGTNTNIGSGYSVQWYQQLPGESPKPIIYGSSNRPSGVPARFSGSKSGSTGTLTITGIQAEDEADYHCQSYDDSLDGHAVFGGGTQLTILGGGSSRSSSSGGGGSGGGGEVQLVQSGGDLVKPGGSLRLSCVASGFTFSDNYMSWIRQVPGKGLQWVSRISTDGRGTSYADAVKGRFTISRDNAKNTLYLQMNSLRDEDTAVYYCARRSGIWGFDYWGQGALVTVSSESPSPPNLTSGQAGQHHHHHHGAYPYDVPDYAS
notes: Canine scFv (VL-linker-VH); also called scFv_06; P3-28
B8: scFv 34 (scFv)
scFv: B7 scFv with Q1S, P2Y, V3E, G12A, S13A, Q137E, F158L, A243T
notes: Canine scFv (VL-linker-VH); also called P3-44
B9: scFv 23 (scFv)
scFv: DIVMTQTPLSLSVSPGEPASISCKASQSLLHSNGNTYLYWFRQKPGQSPQRLIYLVSNRDAGVPDRFSGSGSGTDFTLRISRVEADDSGIYYCGQGKQDPITFGEGTHLEIKGGSSRSSSSGGGGSGGGGELTLQESGPGLVKPSQTLSLTCVVSGGSVTTSDYWNWLRQRPGRGLEYMGYWKGRTEYNPAFQGRISITADTAKNQFSLQLNSVTADDTAIYYCAHWGSGNLDYWGPGTLVTVSSESPSPPNLTSGQAGQHHHHHHGAYPYDVPDYAS
notes: Canine scFv (VL-linker-VH); also called P3-37
B10: scFv 31 (scFv)
scFv: QSALTQPSSVSVSLGQTATISCSGESLTKYYVQWFQQKAGQAPVLVIYRDTERPSGIPDRFSGSSSGNTHTLTISGARAEDEADYYCESMDGREAYVFGSGTQLTVLGGGSSRSSSSGGGGSGGGGEVQLVESGGDLVKPGGSLRLSCVASGFTFSSYWMSWVRQAPGKGLQWIADISDSGSSTDYADAVKGRFTISRDNAKNTLYLQMNSLRAEDTAMYYCARGLGMDYWGHGTSLFVSSASTTAPSVTSGQAGQHHHHHHGAYPYDVPDYAS
notes: Canine scFv (VL-linker-VH); also called P4-09
B11: scFv 3 (scFv)
scFv: QSVLNQPPSVSGALGQTVTISCSGSHTNIGSGFDVQWYQQLPGKSPQTLVYANINRPSGVPARFSGSKSGSTATLTITGVQAEDEADYYCQSYDDNFDGHVFGSGTQLTVLGGGSSRSSSSGGGGSGGGGEVQLVQSGGDLVKPGGSLRLSCVASGFTFSNYTMSWVRQAPGQGLQWVAYINYDGSITYYAEAVKGRFTVSRDNAKNTLYLQMNSLRAEDTAVYFCVKETFMIPTEWGQGTLITVSSASTTAPSVTSGQAGQHHHHHHGAYPYDVPDYAS
notes: Canine scFv (VL-linker-VH); also called scFv_03; P3-05
B12: scFv 22 (scFv)
scFv: QPVLTQPPSVSGSLGQRVTISCTGSSSNVGYGDYVGWYQQLPGTSPRTLIYSSSSRPSGVPDRFSGSRSGSTATLTISGLQAEDEADYHCSSYDTSLNGFVFGSGTQLTILGGGSSRSSSSGGGGSGGGGELTLQESGPGLVKPAQTLSLTCTVSGDSVTSSHFWHWIRQRPGRGLEWMGYWSDITIYSPTFQGRISITVDTARNQFSLHLNSVTTEDSAVYFCARYNGYVDYLDVWGQGTLITVSSASTTAPSVTSGQAGQHHHHHHGAYPYDVPDYAS
notes: Canine scFv (VL-linker-VH); also called P3-09; P3-11
B13: scFv 26 (scFv)
scFv: SSVLTQPPSVSVSLGQTATISCSGESLSKYYTQWFQQKAGQAPILVIYKDTERPSGIPDRFSGSSSGNTHTLTISGARAEDEADYYCESLVDSDAYMFGSGTQLTVLGGGSSRSSSSGGGGSGGGGEVQLVETGGDLVKPGGSLRLSCVGSGFTFSSYWMSWVRQAPGKGLQWIADISDSGSSTDYADAVKGRFTISRDNAKNTLYLQMNSLRAEDTAMYYCARGLGMDYWGHGTSLFVSSASTTAPSVTSGQAGQHHHHHHGAYPYDVPDYAS
notes: Canine scFv (VL-linker-VH); also called P3-03
B14: scFv 29 (scFv)
scFv: QSVLNQPPSVSVSLGQTATISCSGESLNKYYTQWFQQKAGQAPVLVIYKDTERPSGIPDRFSGSSSGNTHTLTISGARAEDEADYYCESVDSTDTYVFGSGTQLTILGGGSSRSSSSGGGGSGGGGEVHLVESGGDLVKPGGSLRLSCVGSGFTFSSYWMSWVRQAPGKGLQWIADISDSGSSTDYADAVKGRFTISRDNAKNTLYLQMNSLRAEDTAMYYCARGLGMDYWGHGTSLFVSSASTTAPSVTSGQAGQHHHHHHGAYPYDVPDYAS
notes: Canine scFv (VL-linker-VH); also called P3-51
B15: scFv 28 (scFv)
scFv: QSALTQPSSVSVSLGQTATISCSGESLNKYYVQWFQQKAGQVPILVIYRDTERPSGIPDRFSGSSSGNTHTLTITGTRAEDEADYYCESLVNDNTYVFGSGTQLTVLGGGSSRSSSSGGGGSGGGGEVQLVETGGDLVKPGGSLRLSCVGSGFTFSSYWMSWVRQAPGKGLQWIADISDSGSSTDYADAVKGRFTISRDNAKNTLYLQMNSLRAEDTAMYYCARGLGMDYWGHGTSLFVSSASTTAPSVTSGQAGQHHHHHHGAYPYDVPDYAS
notes: Canine scFv (VL-linker-VH); also called P3-30

target: T1, human CD19 protein with a biotinylated AviTag (Acrobiosystems) (human, UniProt P15391 20-291, biotinylated AviTag); assay: phage ELISA, biotinylated AviTag CD19 on streptavidin wells; signal ratio to FMC63 standard
T1 construct: Captured on streptavidin-coated microplate wells; also called biotinylated-AviTag-CD19; hCD19; not shown: AviTag
T1 sequence (looked up): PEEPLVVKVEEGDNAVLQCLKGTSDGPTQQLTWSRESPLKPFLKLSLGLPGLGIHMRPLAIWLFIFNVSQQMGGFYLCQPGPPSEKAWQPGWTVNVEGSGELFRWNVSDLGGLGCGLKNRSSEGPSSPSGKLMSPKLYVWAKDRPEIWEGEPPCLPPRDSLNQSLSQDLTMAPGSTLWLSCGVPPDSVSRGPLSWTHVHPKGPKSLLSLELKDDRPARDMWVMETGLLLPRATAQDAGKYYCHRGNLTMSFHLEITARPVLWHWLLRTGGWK
Description: To identify unique human CD19-binding monoclonal scFv from the panned libraries, individual phage antibody clones were expanded, assessed for binding to CD19 by ELISA, and subjected to nucleotide sequencing to identify those clones that were unique. A total of 84 scFvs were randomly selected from the panned libraries (70 from P3 and 14 from P4).

First: B1
Second: B2
The “ELISA hCD19 (ratio FMC63)” value of the first is lower: 0.43 ratio to FMC63 for the first, 0.71 ratio to FMC63 for the second.

Compared with B3, B4 is higher in “ELISA hCD19 (ratio FMC63)” value: 0.15 ratio to FMC63 for the first, 0.2 ratio to FMC63 for the second.

First: B5
Second: B6
The “ELISA hCD19 (ratio FMC63)” value of the first is higher: 0.35 ratio to FMC63 for the first, 0.22 ratio to FMC63 for the second.

First: B7
Second: B8
The “ELISA hCD19 (ratio FMC63)” value of the first is lower: 0.47 ratio to FMC63 for the first, 0.73 ratio to FMC63 for the second.

First: B9
Second: B10
The “ELISA hCD19 (ratio FMC63)” value of the first is higher: 0.36 ratio to FMC63 for the first, 0.35 ratio to FMC63 for the second.

Compared with B11, B12 is lower in “ELISA hCD19 (ratio FMC63)” value: 0.32 ratio to FMC63 for the first, 0.21 ratio to FMC63 for the second.

First: B13
Second: B14
The “ELISA hCD19 (ratio FMC63)” value of the first is lower: 0.65 ratio to FMC63 for the first, 0.83 ratio to FMC63 for the second.

For B15, the “ELISA hCD19 (ratio FMC63)” value was 0.33 ratio to FMC63.
